The subject of data set [1] is TRX-EK-hIFNa [thioredoxin: P0AA25].
The target of a further data set is T1, TRX-EK-mIL15 (UniProt P48346).
T1 sequence: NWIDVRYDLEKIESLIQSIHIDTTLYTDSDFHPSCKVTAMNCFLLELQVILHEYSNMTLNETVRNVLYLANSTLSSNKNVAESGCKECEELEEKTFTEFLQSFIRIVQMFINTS

The target of a further data set is H-GST-T-mLIF (UniProt P09056).
A further data set has as its target H-GST-DEVD/S-mLIF (UniProt P09056).
The next data set has as its target H-GST-DEVD/mLIF (UniProt P09056).

Chain of TRX-EK-hIFNa [thioredoxin: P0AA25] (P0AA25 whole entry, looked up): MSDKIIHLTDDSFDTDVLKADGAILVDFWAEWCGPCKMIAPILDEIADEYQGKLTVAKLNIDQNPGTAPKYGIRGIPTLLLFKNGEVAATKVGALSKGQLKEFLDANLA

In the case of Enterokinase, the “processing of the fusion protein (gel, FIG. 3b)” value in data set [1] is reported as 16 h incubation with Enterokinase resulted in only a minor amount of processing of the fusion protein. Moreover, the “cleavage of the fusion protein (gel, FIG. 3a)” value with TRX-EK-mIL15 is recorded as “Cleavage with enterokinase required a long incubation time in order to process the molecule. In the end, the molecule was processed”.
Take Thrombin: in the data set with H-GST-T-mLIF, the “time needed for processing” value was “up to 16 h were needed to process the H-GST-T-mLIF fusion protein with Thrombin”.
For reverse Caspase-7, the “cleavage of the fusion protein (gel, FIG. 7)” value is “Both mLIF and hIFN alpha were cut efficiently using Either Caspase-3 or reverse Caspase-7, with either the recognition site DEVD/ or DEVD/S” in the data set with GST-C-hIFNα; “Both mLIF and hIFN alpha were cut efficiently using Either Caspase-3 or reverse Caspase-7, with either the recognition site DEVD/ or DEVD/S” in the data set with H-GST-DEVD/S-mLIF; “Both mLIF and hIFN alpha were cut efficiently using Either Caspase-3 or reverse Caspase-7, with either the recognition site DEVD/ or DEVD/S” with H-GST-DEVD/mLIF.

The values are drawn from US20060099689.
